The target of the test is sfGFP-Ensconsin (full length) (Drosophila). As to the kind of experiment: TIRF microscopy.

In the case of “K560-mScarlet (truncated Kinesin-1 motor) (domain or fragment)”, the fluorescence intensity of K560-mScarlet on microtubules with 25 nM sfGFP-Ensc amounted to 34200 A.U.

Source of the values: publication doi:10.1101/325035.
